Results on two molecules are retold here after patent US20240301086A1 (APTEVO RESEARCH AND DEVELOPMENT, published 2024).

Assay [1] addresses T1, human CD3ε in the TCR/CD3 complex on Jurkat cells (human, UniProt P07766 23-207). The experiment in a line: cell-based or functional assay.
Assay [2] has as its target T1, human CD3ε in the TCR/CD3 complex on …. The assay is described as follows: flow cytometry, Jurkat cells (approximate calculation). The protocol:
Jurkat and C4-2B cells were labelled at approximately 100,000 cells per well, in 96-well plates, with serial dilutions of bispecific constructs ranging in concentration from of 0.1 to 300 nM, for 30 min on ice. Primary label was followed by washes and incubation with PE-labeled minimum cross species reactive secondary antibody, goat anti-human IgG Fcγ, F(ab′)2 (Jackson Laboratory) for 30 minutes on ice. Washes and incubation were done in staining buffer (PBS with 0.2% BSA and 2 mM EDTA). Cells were collected using an BD™ LSRII or a BD FACSymphony™ flow cytometer (BD Biosciences) and analyzed by FlowJo flow cytometry analysis software. Median fluorescence intensity (MFI) of bound molecules on cells was determined after exclusion of doublets. Results were plotted and nonlinear regression analysis to determine EC50 values was performed using GraphPad Prism 7® graphing and statistics software.
On Jurkat cells (FIG. 11B), a range of binding potencies was observed. […] Swapping the orientation of the CD3-binding domain from VH-VL (PSMA01071) to VL-VH (PSMA01086) further reduced binding to CD3 in the C-terminus. The maximum CD3-binding signal differed between the constructs with N-terminal CD3-binding domain constructs showing the highest maximum binding. However, potency (EC50) and not maximum binding correlated with function, as will be shown in the next example.

For assay [3], the target named is T2, Full-length Human PSMA (TSC435), on cells (human, UniProt Q04609 1-750).
T2 construct: also called CHOK1SV/huPSMA; PSMA on C4-2B, 22RV1, LNCaP, MDA-PCa-2b cells
The experiment in a line: flow cytometry on C4-2B cells, PE goat anti-human IgG Fc secondary, MFI (median). Background: In flow cytometry, cells or beads pass a laser one at a time.

In assay [4] the target is T1, human CD3ε in the TCR/CD3 complex on …. The experiment in a line: flow cytometry on Jurkat cells, PE goat anti-human IgG Fc secondary, MFI (median).
The target is the same in assay [5]. The assay is described as follows: flow cytometry on Jurkat cells, MFI (median).
Assay [6] concerns the target T3, Human PSMA ECD-AFH (TSC033), recombinant dimeric PSMA ECD (human, UniProt Q04609 44-750).
T3 construct: SEC-purified dimer; also called HuPSMA-AFH; Avi-His-Human PSMA ECD
The assay is described as follows: SPR (Biacore T200), human PSMA dimer ECD 10X His (TSC033), 1:1 fit. A general note: In SPR one partner is held on a chip, and binding of the other changes the refractive index at the surface.

The target of assay [7] is T4, mIgG Fc-human PSMA ECD (human).
T4 construct: Called PSMA dimer in the SPR method; also called mFc-Hu PSMA ECD; murine Fc-tagged human PSMA ECD
The assay is described as follows: SPR (Biacore T200), bispecific amine-coupled, mFc-PSMA dimer 1-81 nM as analyte, 1:1 fit. As for the experimental part:
(§1) SPR studies were performed on a subset of bispecific constructs binding to Human and cynomolgus primate PSMA ectodomain (ECD) fused to the c-terminus of a murine IgG1 Fc region. These experiments were conducted at 25° C. in dPBS (Gibco, 14040-133) with 0.2% BSA buffer on a Biacore T200 system. Bispecific constructs were immobilized at a density of ˜2,000-4,000 response units (RU) onto individual flow cells of a CM5 research-grade sensor chip (GE) by standard amine coupling chemistry, leaving one flow cell surface unmodified as the reference. Using a multi-cycle kinetics mode, a buffer blank and […] different concentrations of the PSMA dimer ranging from 1 nM to 81 nM in dPBS with 0.2% BSA were sequentially injected through each flow cell at 30 μL/min for 300 seconds followed by a 600 second dissociation phase. Regeneration was achieved by injection of 10 mM glycine pH 2.0 at a flow rate of 30 μL/min for 40 seconds followed by dPBS with 0.2% BSA buffer stabilization for 1 min.
(§2) Sensorgrams obtained from kinetic SPR measurements were analyzed by the double subtraction method. The signal from the reference flow cell was subtracted from the analyte binding response obtained from flow cells with captured ligands. The buffer blank response was then subtracted from analyte binding responses and the final double-referenced data were analyzed with Biacore T200 Evaluation software (2.0, GE), globally fitting data to derive kinetic parameters. All sensorgrams were fitted using a simple one-to-one binding model.

Assay [8] concerns the target T5, mIgG Fc-cyno PSMA ECD (cynomolgus monkey).
T5 construct: Called PSMA dimer in the SPR method; also called mFc-Cyno PSMA ECD; murine Fc-tagged cyno PSMA ECD
T5 chain: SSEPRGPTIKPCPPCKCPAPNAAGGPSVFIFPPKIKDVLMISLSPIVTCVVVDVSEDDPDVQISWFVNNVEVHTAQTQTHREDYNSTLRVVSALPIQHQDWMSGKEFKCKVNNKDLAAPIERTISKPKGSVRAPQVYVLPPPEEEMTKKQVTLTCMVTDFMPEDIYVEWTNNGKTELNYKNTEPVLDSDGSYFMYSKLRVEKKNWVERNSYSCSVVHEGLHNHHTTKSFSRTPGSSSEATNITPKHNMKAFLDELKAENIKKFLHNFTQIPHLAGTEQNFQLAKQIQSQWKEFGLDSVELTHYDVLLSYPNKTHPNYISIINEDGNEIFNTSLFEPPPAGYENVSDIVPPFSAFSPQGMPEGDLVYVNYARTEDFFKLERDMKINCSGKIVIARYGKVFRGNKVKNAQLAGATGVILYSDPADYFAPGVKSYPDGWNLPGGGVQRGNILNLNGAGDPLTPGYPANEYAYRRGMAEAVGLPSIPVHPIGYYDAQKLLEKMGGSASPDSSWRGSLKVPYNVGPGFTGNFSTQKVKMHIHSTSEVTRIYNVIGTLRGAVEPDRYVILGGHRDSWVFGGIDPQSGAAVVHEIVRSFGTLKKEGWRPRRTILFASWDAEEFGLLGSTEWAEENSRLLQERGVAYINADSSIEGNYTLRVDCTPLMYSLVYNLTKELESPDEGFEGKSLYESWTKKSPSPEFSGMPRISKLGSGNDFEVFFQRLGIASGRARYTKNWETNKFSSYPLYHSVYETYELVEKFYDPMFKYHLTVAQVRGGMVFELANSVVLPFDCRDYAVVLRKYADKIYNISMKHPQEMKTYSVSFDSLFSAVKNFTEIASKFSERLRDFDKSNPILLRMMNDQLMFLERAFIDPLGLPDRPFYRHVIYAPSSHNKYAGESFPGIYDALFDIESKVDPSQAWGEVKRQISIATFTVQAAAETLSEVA
The assay is described as above. The protocol:
as §1, §2

T1 sequence (P07766 23-207, one chain of several): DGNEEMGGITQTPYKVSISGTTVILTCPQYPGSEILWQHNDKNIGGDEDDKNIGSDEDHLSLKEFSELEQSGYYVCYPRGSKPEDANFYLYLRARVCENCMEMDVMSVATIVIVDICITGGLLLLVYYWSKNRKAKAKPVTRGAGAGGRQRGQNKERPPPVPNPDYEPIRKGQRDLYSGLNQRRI
T2 sequence (Q04609 whole entry): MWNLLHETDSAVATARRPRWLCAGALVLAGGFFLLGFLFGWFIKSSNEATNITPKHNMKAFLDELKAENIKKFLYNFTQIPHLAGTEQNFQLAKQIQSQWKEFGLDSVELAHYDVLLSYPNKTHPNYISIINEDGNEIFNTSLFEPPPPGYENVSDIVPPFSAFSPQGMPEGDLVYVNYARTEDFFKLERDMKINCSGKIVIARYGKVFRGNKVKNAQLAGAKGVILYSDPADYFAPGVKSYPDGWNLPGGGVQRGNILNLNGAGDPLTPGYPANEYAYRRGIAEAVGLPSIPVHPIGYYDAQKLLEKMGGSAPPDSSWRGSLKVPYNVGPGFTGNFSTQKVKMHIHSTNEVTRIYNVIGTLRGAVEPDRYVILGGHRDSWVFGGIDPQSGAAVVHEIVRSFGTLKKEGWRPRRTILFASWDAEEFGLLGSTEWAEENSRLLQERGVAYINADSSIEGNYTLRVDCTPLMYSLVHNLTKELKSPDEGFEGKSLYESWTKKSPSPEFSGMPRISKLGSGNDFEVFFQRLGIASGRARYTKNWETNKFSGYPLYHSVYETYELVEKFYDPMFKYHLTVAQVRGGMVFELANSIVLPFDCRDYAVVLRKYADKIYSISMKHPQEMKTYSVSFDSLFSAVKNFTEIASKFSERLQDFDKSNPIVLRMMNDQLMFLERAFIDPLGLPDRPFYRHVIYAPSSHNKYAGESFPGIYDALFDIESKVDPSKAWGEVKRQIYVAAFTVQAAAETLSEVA
T3 sequence (Q04609 other isoform, or with tags, fused parts or gaps): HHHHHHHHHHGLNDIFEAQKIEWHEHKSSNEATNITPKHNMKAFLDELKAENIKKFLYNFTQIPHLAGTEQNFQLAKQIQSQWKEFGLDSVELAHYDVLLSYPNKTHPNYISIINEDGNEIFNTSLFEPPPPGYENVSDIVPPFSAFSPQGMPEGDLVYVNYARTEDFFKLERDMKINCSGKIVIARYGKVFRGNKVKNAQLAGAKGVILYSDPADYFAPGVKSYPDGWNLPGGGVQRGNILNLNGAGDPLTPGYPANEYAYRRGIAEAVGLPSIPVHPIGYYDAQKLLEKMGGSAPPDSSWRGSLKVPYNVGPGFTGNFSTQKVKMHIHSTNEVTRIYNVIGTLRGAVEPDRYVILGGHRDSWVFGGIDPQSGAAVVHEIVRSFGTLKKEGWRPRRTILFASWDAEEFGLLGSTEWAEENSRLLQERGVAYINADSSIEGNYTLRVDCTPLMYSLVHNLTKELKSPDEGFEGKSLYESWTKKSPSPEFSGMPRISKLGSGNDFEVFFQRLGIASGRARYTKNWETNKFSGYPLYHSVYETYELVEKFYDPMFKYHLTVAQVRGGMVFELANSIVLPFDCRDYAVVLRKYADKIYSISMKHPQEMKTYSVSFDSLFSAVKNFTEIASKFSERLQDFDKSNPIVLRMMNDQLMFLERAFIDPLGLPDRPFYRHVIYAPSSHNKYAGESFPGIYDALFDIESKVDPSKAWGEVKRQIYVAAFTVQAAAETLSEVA

B1: PSMA01071 Anti PSMA scFv x Fc; Anti PSMA scFv x Fc x Anti CD3 scFv (bispecific antibody)
chain 1: QVQLVQSGAEVKKPGASVKVSCKASGYTFTDYYMHWVRQAPGQGLEWMGYFNPYNDYTRYAQKFQGRVTMTRDTSTSTVYMELSSLRSEDTAVYYCARSDGYYDAMDYWGQGTTVTVSSGGGGSGGGGSGGGGSGGGGSDIQMTQSPSSLSASVGDRVTITCRASKSISKYLAWYQQKPGKAPKLLIHSGSSLESGVPSRFSGSGSGTEFTLTISSLQPDDFATYYCQQHIEYPWTFGQGTKVEIKEPKSSDKTHTCPPCPAPPAAAPSVFLFPPKPKDTLMISRTPEVTCVVVDVSHEDPEVKFNWYVDGVEVHNAKTKPREEQYNSTYRVVSVLTVLHQDWLNGKEYKCAVSNKALPAPIEKTISKAKGQPREPQVYTLPPSRDELTKNQVSLWCLVKGFYPSDIAVEWESNGQPENNYKTTPPVLDSDGSFFLYSKLTVDKSRWQQGNVFSCSVMHEALHNHYTQKSLSLSPG
chain 2: QVQLVQSGAEVKKPGASVKVSCKASGYTFTDYYMHWVRQAPGQGLEWMGYFNPYNDYTRYAQKFQGRVTMTRDTSTSTVYMELSSLRSEDTAVYYCARSDGYYDAMDYWGQGTTVTVSSGGGGSGGGGSGGGGSGGGGSDIQMTQSPSSLSASVGDRVTITCRASKSISKYLAWYQQKPGKAPKLLIHSGSSLESGVPSRFSGSGSGTEFTLTISSLQPDDFATYYCQQHIEYPWTFGQGTKVEIKEPKSSDKTHTCPPCPAPPAAAPSVFLFPPKPKDTLMISRTPEVTCVVVDVSHEDPEVKFNWYVDGVEVHNAKTKPREEQYNSTYRVVSVLTVLHQDWLNGKEYKCAVSNKALPAPIEKTISKAKGQPREPQVYTLPPSRDELTKNQVSLSCAVKGFYPSDIAVEWESNGQPENNYKTTPPVLDSDGSFFLVSKLTVDKSRWQQGNVFSCSVMHEALHNRFTQKSLSLSPGGGGSPSQVQLVQSGAEVKKPGASVKVSCKASGYTFTRSTMHWVRQAPGQGLEWIGYINPSSAYTNYAQKFQGRVTLTADKSTSTAYMELSSLRSEDTAVYYCASPQVHYDYNGFPYWGQGTLVTVSSGGGGSGGGGSGGGGSGGGGSDIQMTQSPSSLSASVGDRVTITCRASSSVSYMNWYQQKPGKAPKRWIYDSSKLASGVPSRFSGSGSGTDFTLTISSLQPEDFATYYCQQWSRNPPTFGQGTKVEIKRS
B1 gave a cytotoxic activity in assay [1] of around 10 fold. In assay [1], the “fold decrease in T-cell activation and proliferation” value was around 3 fold. For the same molecule, in assay [2], the “fold reduction in binding potency against PSMA01072” value is around 200 fold. Besides, the EC50 was 1 nM in assay [3] and above 204 nM in assay [4].

B2: PSMA01116 Anti-PSMA scFv x Fc x linker x Anti CD3 scFv; Anti PSMA scFv x Fc (bispecific antibody)
chain 1: QVQLVQSGAEVKKPGASVKVSCKASGYTFTDYYMHWVRQAPGQGLEWMGYFNPYNDYTRYAQKFQGRVTMTRDTSTSTVYMELSSLRSEDTAVYYCARSDGYYDAMDYWGQGTTVTVSSGGGGSGGGGSGGGGSGGGGSDIQMTQSPSSLSASVGDRVTITCRASKSISKYLAWYQQKPGKAPKLLIHSGSSLESGVPSRFSGSGSGTEFTLTISSLQPDDFATYYCQQHIEYPWTFGQGTKVEIKEPKSSDKTHTCPPCPAPPAAAPSVFLFPPKPKDTLMISRTPEVTCVVVDVSHEDPEVKFNWYVDGVEVHNAKTKPREEQYNSTYRVVSVLTVLHQDWLNGKEYKCAVSNKALPAPIEKTISKAKGQPREPQVYTLPPSRDELTKNQVSLWCLVKGFYPSDIAVEWESNGQPENNYKTTPPVLDSDGSFFLYSKLTVDKSRWQQGNVFSCSVMHEALHNHYTQKSLSLSPGGGGSPSQVQLVQSGAEVKKPGASVKVSCKASGYTFTRSTMHWVRQAPGQGLEWIGYINPSSAYTNYAQKFQGRVTLTADKSTSTAYMELSSLRSEDTAVYYCASPQVHYDYNGFPYWGQGTLVTVSSGGGGSGGGGSGGGGSGGGGSDIQMTQSPSSLSASVGDRVTITCRASSSVSYMNWYQQKPGKAPKRWIYDSSKLASGVPSRFSGSGSGTDFTLTISSLQPEDFATYYCQQWSRNPPTFGQGTKVEIK
chain 2: QVQLVQSGAEVKKPGASVKVSCKASGYTFTDYYMHWVRQAPGQGLEWMGYFNPYNDYTRYAQKFQGRVTMTRDTSTSTVYMELSSLRSEDTAVYYCARSDGYYDAMDYWGQGTTVTVSSGGGGSGGGGSGGGGSGGGGSDIQMTQSPSSLSASVGDRVTITCRASKSISKYLAWYQQKPGKAPKLLIHSGSSLESGVPSRFSGSGSGTEFTLTISSLQPDDFATYYCQQHIEYPWTFGQGTKVEIKEPKSSDKTHTCPPCPAPPAAAPSVFLFPPKPKDTLMISRTPEVTCVVVDVSHEDPEVKFNWYVDGVEVHNAKTKPREEQYNSTYRVVSVLTVLHQDWLNGKEYKCAVSNKALPAPIEKTISKAKGQPREPQVYTLPPSRDELTKNQVSLSCAVKGFYPSDIAVEWESNGQPENNYKTTPPVLDSDGSFFLVSKLTVDKSRWQQGNVFSCSVMHEALHNHYTQKSLSLSPG
notes: Heterodimer, bivalent for PSMA and monovalent for CD3; also called PSM01116
On to B2, for which the binding result in assay [5] is on record as “binds”. The values for the Kd in assay [6], in assay [7] and in assay [8] were 5.2 nM, 4.1 nM and 6.2 nM, respectively.

Usually EC50 stands for the concentration giving half of the maximal effect. Lower therefore signals higher potency in that assay. What is called Kd is the equilibrium constant for the complex coming apart.
